The results in this text go back to paper PMC10743661, “The Link of mRNA and rRNA Transcription by PUF60/FIR through TFIIH/P62 as a Novel Therapeutic Target for Cancer” (International Journal of Molecular Sciences, 2023).

The target of experiment [1] is T1, FUBP1-interacting repressor (FIR) (human, UniProt Q9UHX1-2 1-542).
T1 chain: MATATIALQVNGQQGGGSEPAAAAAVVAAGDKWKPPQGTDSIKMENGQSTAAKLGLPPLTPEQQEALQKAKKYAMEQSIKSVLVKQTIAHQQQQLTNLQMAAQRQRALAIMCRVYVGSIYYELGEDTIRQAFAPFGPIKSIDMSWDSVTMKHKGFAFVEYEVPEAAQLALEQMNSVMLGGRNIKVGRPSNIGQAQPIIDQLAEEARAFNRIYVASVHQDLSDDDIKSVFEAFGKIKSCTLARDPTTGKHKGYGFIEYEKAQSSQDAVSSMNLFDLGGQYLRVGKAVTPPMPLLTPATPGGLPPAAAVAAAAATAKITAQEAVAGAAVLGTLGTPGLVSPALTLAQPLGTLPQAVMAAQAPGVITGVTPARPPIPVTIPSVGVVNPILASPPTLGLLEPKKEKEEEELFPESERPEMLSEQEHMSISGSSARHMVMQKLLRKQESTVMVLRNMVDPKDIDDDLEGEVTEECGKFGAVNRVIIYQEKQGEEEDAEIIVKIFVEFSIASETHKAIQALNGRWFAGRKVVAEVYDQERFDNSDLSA
The experiment is described as follows: ITC; first step of two-step fit, 30°C, pH 7.2.

In experiment [2] the target is T1, FUBP1-interacting repressor (FIR). The experiment is described as follows: ITC; second step of two-step fit, 30°C, pH 7.2.
The target in experiment [3] is T2, FUBP1-interacting repressor (FIR) (human, UniProt Q9UHX1-2 1-542).
T2 construct: also called FIR wild; wild FIR
T2 sequence (looked up): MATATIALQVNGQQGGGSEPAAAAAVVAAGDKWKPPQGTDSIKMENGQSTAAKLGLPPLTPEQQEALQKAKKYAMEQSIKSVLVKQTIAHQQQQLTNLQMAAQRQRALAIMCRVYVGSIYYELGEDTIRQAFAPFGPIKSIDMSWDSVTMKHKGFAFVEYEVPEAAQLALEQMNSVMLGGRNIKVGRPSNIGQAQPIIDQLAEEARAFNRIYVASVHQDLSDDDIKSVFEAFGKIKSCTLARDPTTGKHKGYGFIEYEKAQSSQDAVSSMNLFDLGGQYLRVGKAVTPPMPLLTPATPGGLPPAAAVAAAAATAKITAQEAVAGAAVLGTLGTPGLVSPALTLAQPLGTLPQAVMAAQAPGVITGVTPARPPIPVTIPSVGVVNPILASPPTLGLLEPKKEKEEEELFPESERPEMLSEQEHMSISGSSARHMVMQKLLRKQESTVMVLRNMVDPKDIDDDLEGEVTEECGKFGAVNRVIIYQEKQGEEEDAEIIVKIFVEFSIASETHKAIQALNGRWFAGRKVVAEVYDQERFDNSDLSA
The experiment is described as follows: ITC; MicroCal VP-ITC, 30 °C, 50 mM phosphate buffer pH 7.2; cell: 4 μM wild FIR or 14.5 μM FIR∆exon2; syringe: 44 or 145 μM TFIIH p62 PH domain; 25 injections of 10 μL. The note with it: both partners purified.

B1: TFIIH p62 PH domain (domain or fragment, UniProt P32780 1-108, looked up)
chain: MATSSEEVLLIVKKVRQKKQDGALYLMAERIAWAPEGKDRFTISHMYADIKCQKISPEGKAKIQLQLVLHAGDTTNFHFSNESTAVKERDAVKDLLQQLLPKFKRKAN
notes: pleckstrin homology (PH) domain of the P62 subunit of transcription factor IIH; also called P62 of TFIIH; P62 subunit of TFIIH
Take B1: the Ka is 1.9e+07 M⁻¹ in experiment [1], 2.3e+06 M⁻¹ in experiment [2] and 2.34e+07 M⁻¹ in experiment [3].
